Results from patent US20250084176A1 (F STAR BETA, published 2025).

T1: cCD137-mFc-Avi (cynomolgus; mouse, one biotin on the Avi sequence of each monomer (BirA); unbiotinylated in the SPR of Example 5.6)
T1 construct: also called cyno CD137-mFc-Avi; dimeric cynomolgus CD137; not shown: mouse IgG2a Fc domain (mIgG2a Fc)
T1 chain: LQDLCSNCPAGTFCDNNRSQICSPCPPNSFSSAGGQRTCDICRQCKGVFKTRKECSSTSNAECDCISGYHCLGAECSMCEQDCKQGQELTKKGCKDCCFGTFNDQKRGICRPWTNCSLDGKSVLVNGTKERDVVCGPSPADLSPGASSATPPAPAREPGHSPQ

T2: human OX40 (human, UniProt P43489 29-216, limits assumed)
T2 sequence (looked up): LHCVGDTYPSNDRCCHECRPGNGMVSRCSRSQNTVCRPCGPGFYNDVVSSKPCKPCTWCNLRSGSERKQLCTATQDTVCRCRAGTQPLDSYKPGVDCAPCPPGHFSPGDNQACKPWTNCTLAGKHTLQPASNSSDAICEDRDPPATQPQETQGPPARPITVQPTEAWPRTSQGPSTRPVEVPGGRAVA

T3: human GITR (human, UniProt Q9Y5U5 26-161, limits assumed)
T3 sequence (looked up): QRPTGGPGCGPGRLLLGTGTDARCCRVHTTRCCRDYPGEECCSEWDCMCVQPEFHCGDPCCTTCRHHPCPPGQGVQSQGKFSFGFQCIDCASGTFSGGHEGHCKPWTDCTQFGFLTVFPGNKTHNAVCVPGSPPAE


Assays:
hCD137-Avi-His = biological target: T4, hCD137-Avi-His (human, UniProt Q07011 24-186, single biotin on the Avi sequence (BirA); unbiotinylated in the SPR of Example 5.6); assay: SPR (Biacore), mAb2 captured by anti-human Fab, antigen in solution, 1:1 Langmuir
T4 construct: also called human CD137-Avi-His; monomeric human CD137
Procedure: (§1) An anti-human Fab capture antibody was immobilised on all four flow cells of a CM5 series S chip (GE Healthcare #BR-1005-30) to an average surface density of 6000 RU following the manufacturer's recommendations (GE Healthcare, human Fab capture Kit, #28958325). IEach mAb² was captured to approximately 150 RU by injecting a 3 μg/ml solution of mAb² diluted in HBS-EP+ buffer (GE Healthcare #BR1006-69) for 60 seconds at 30 μl/min. Then different concentrations of human, cyno or mouse CD137 antigen (unbiotinylated human, cyno or mouse CD137-mFc-Avi or human CD137-Avi-His) in HBS-EP+ buffer were flowed over the chip for 3 min at 60 μl/min and then allowed to dissociate for 10 minutes. After each antigen concentration the chip was regenerated by infecting 10 mM glycine pH 2.1 at a flow rate of 30 μl/min for 30 seconds. Buffer HBS-EP+ was injected before the highest concentration of antigen and after the lowest concentration of antigen for reference subtraction, and one of the concentrations at random was repeated twice. The binding kinetics were fit with a 1:1 Langmuir model to generate equilibrium binding constants (KD) for each sample. Data analysis was performed with BiaEvaluation software version 3.2.

hCD137-mFc-Avi = biological target: T5, hCD137-mFc-Avi (human; mouse, UniProt Q07011 24-186, one biotin on the Avi sequence of each monomer (BirA); unbiotinylated in the SPR of Example 5.6); assay: as above
T5 construct: Made in-house in HEK293-6E; also called human CD137-mFc-Avi; dimeric human CD137; not shown: mouse IgG2a Fc domain (mIgG2a Fc)
Procedure: as §1

cCD137-mFc-Avi = biological target: T1, cCD137-mFc-Avi; assay: as above
Procedure: as §1

human OX40 = biological target: T2, human OX40; assay: SPR (Biacore T200), receptor amine-coupled to CM5 chip
Procedure: (§2) The specificity of the anti-human CD137 Fcabs for human CD137 compared to other related TNFSFR family members was tested. 8 of the Fcabs were tested in mock mAb² (HeID1.3) format and measured by SPR in a Biacore T200 (GE Healthcare) by testing for binding to other human TNFRSF receptors: CD40, OX40 and GITR. Amine coupling (amine coupling kit, GE Healthcare, BR-1000-50) was used to coat human CD40, GITR and OX40 to approximately 1000 RU in Biacore CM5 chips (GE Healthcare, cat no 29149603). […] The chip was regenerated by injection of 10 mM glycine pH 2.5 for 12 s at 30 μl/min. Antibodies specific to the different TNFRSF members were used as positive controls to verify Biacore chip coating. Data was double reference subtracted and analysed using BIAevaluation 3.2 software.

human GITR = biological target: T3, human GITR; assay: as above
Procedure: as §2

human CD40 = human CD40 (human, UniProt P25942 21-193); assay: as above
Procedure: as §2

[1] = biological target: human CD137, full length, on cells (human, UniProt Q07011 24-255); assay: cell-based or functional assay
human CD137, full length, on cells, sequence (Q07011 24-255): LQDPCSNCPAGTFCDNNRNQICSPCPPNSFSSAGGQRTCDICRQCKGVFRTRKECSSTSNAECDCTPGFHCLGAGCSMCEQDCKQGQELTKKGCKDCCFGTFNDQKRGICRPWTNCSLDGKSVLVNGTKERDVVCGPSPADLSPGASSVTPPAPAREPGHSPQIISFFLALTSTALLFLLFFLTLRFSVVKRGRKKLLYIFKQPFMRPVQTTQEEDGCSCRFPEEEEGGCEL

T5 sequence (Q07011 24-186): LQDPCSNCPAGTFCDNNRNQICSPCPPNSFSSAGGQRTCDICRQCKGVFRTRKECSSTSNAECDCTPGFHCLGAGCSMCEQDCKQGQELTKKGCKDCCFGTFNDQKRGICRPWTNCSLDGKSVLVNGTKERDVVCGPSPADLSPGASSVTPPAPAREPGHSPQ
T4 sequence (Q07011 24-186): as above
human CD40, sequence (P25942 21-193 limits assumed): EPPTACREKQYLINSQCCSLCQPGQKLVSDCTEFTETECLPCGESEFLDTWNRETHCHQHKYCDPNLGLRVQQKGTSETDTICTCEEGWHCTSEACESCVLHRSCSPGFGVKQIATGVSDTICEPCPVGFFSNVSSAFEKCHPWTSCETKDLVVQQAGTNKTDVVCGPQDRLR

| Binder | Human monomeric CD137 KD fold difference relative to human dimeric KD (hCD137-Avi-His) [fold] | Kd (hCD137-mFc-Avi) [nM] | Kd (cCD137-mFc-Avi) [nM] | binding result (human OX40) | binding result (human GITR) | binding result (human CD40) | NF-kB signalling, HEK.FRT.luc.hCD137, +XL (EC50 nM) [1] [nM] |
| --- | --- | --- | --- | --- | --- | --- | --- |
| FS22-053-008/HelD1.3 (bispecific antibody, human IgG1, kappa, Mock mAb^2, IgG1 without LALA; also called FS22-053-008/HeID1.3) heavy: QVQLQESGPGLVRPSQTLSLTCTVSGSTFSGYGVNWVRQPPGRGLEWIGMIWGDGNTDYNSALKSRVTMLVDTSKNQFSLRLSSVTAADTAVYYCARERDYRLDYWGQGSLVTVSSASTKGPSVFPLAPSSKSTSGGTAALGCLVKDYFPEPVTVSWNSGALTSGVHTFPAVLQSSGLYSLSSVVTVPSSSLGTQTYICNVNHKPSNTKVDKKVEPKSCDKTHTCPPCPAPELLGGPSVFLFPPKPKDTLMISRTPEVTCVVVDVSHEDPEVKFNWYVDGVEVHNAKTKPREEQYNSTYRVVSVLTVLHQDWLNGKEYKCKVSNKALPAPIEKTISKAKGQPREPQVYTLPPSRDELNPPYLFSNQVSLTCLVKGFYPSDIAVEWESNGQPENNYKTTPPVLDSDGSFFLYSKLTVDYWRWLEGNVFSCSVMHEALHNHYTQKSLSLSPG light: DIQMTQSPASLSASVGETVTITCRASGNIHNYLAWYQQKQGKSPQLLVYNAKTLADGVPSRFSGSGSGTQYSLKINSLQPEDFGSYYCQHFWSTPRTFGGGTKLEIKRTVAAPSVFIFPPSDEQLKSGTASVVCLLNNFYPREAKVQWKVDNALQSGNSQESVTEQDSKDSTYSLSSTLTLSKADYEKHKVYACEVTHQGLSSPVTKSFNRGEC | 170 | 4.2 | 0.9 | no binding (tested: starting at 1 µM) | no binding (tested: starting at 1 µM) | no binding (tested: starting at 1 µM) | 26.3 |
| FS22-053-011/HelD1.3 (bispecific antibody, human IgG1, kappa, Mock mAb^2, IgG1 without LALA; also called FS22-053-011/HeID1.3) heavy: QVQLQESGPGLVRPSQTLSLTCTVSGSTFSGYGVNWVRQPPGRGLEWIGMIWGDGNTDYNSALKSRVTMLVDTSKNQFSLRLSSVTAADTAVYYCARERDYRLDYWGQGSLVTVSSASTKGPSVFPLAPSSKSTSGGTAALGCLVKDYFPEPVTVSWNSGALTSGVHTFPAVLQSSGLYSLSSVVTVPSSSLGTQTYICNVNHKPSNTKVDKKVEPKSCDKTHTCPPCPAPELLGGPSVFLFPPKPKDTLMISRTPEVTCVVVDVSHEDPEVKFNWYVDGVEVHNAKTKPREEQYNSTYRVVSVLTVLHQDWLNGKEYKCKVSNKALPAPIEKTISKAKGQPREPQVYTLPPSRDELNPPYLFSNQVSLTCLVKGFYPSDIAVEWESNGQPENNYKTTPPVLDSDGSFFLYSKLTVDYWRWTDGNVFSCSVMHEALHNHYTQKSLSLSPG light: DIQMTQSPASLSASVGETVTITCRASGNIHNYLAWYQQKQGKSPQLLVYNAKTLADGVPSRFSGSGSGTQYSLKINSLQPEDFGSYYCQHFWSTPRTFGGGTKLEIKRTVAAPSVFIFPPSDEQLKSGTASVVCLLNNFYPREAKVQWKVDNALQSGNSQESVTEQDSKDSTYSLSSTLTLSKADYEKHKVYACEVTHQGLSSPVTKSFNRGEC | > 200 | 5.5 | 1.3 | no binding (tested: starting at 1 µM) | no binding (tested: starting at 1 µM) | no binding (tested: starting at 1 µM) | 32.8 |
| FS22-172-003/HelD1.3 (bispecific antibody, human IgG1, kappa, Mock mAb^2, IgG1 without LALA) heavy: QVQLQESGPGLVRPSQTLSLTCTVSGSTFSGYGVNWVRQPPGRGLEWIGMIWGDGNTDYNSALKSRVTMLVDTSKNQFSLRLSSVTAADTAVYYCARERDYRLDYWGQGSLVTVSSASTKGPSVFPLAPSSKSTSGGTAALGCLVKDYFPEPVTVSWNSGALTSGVHTFPAVLQSSGLYSLSSVVTVPSSSLGTQTYICNVNHKPSNTKVDKKVEPKSCDKTHTCPPCPAPELLGGPSVFLFPPKPKDTLMISRTPEVTCVVVDVSHEDPEVKFNWYVDGVEVHNAKTKPREEQYNSTYRVVSVLTVLHQDWLNGKEYKCKVSNKALPAPIEKTISKAKGQPREPQVYTLPPSRDELPYIIPPYNQVSLTCLVKGFYPSDIAVEWESNGQPENNYKTTPPVLDSDGSFFLYSKLTVGADRWLEGNVFSCSVMHEALHNHYTQKSLSLSPG light: DIQMTQSPASLSASVGETVTITCRASGNIHNYLAWYQQKQGKSPQLLVYNAKTLADGVPSRFSGSGSGTQYSLKINSLQPEDFGSYYCQHFWSTPRTFGGGTKLEIKRTVAAPSVFIFPPSDEQLKSGTASVVCLLNNFYPREAKVQWKVDNALQSGNSQESVTEQDSKDSTYSLSSTLTLSKADYEKHKVYACEVTHQGLSSPVTKSFNRGEC | > 200 | 1.5 | 1.3 | no binding (tested: starting at 1 µM) | no binding (tested: starting at 1 µM) | no binding (tested: starting at 1 µM) | 32.6 |
| FS22-053-012/HelD1.3 (bispecific antibody, human IgG1, kappa, Mock mAb^2, IgG1 without LALA; also called FS22-053-012/HeID1.3) heavy: QVQLQESGPGLVRPSQTLSLTCTVSGSTFSGYGVNWVRQPPGRGLEWIGMIWGDGNTDYNSALKSRVTMLVDTSKNQFSLRLSSVTAADTAVYYCARERDYRLDYWGQGSLVTVSSASTKGPSVFPLAPSSKSTSGGTAALGCLVKDYFPEPVTVSWNSGALTSGVHTFPAVLQSSGLYSLSSVVTVPSSSLGTQTYICNVNHKPSNTKVDKKVEPKSCDKTHTCPPCPAPELLGGPSVFLFPPKPKDTLMISRTPEVTCVVVDVSHEDPEVKFNWYVDGVEVHNAKTKPREEQYNSTYRVVSVLTVLHQDWLNGKEYKCKVSNKALPAPIEKTISKAKGQPREPQVYTLPPSRDELNPPYLFSNQVSLTCLVKGFYPSDIAVEWESNGQPENNYKTTPPVLDSDGSFFLYSKLTVDHMRWLEGNVFSCSVMHEALHNHYTQKSLSLSPG light: DIQMTQSPASLSASVGETVTITCRASGNIHNYLAWYQQKQGKSPQLLVYNAKTLADGVPSRFSGSGSGTQYSLKINSLQPEDFGSYYCQHFWSTPRTFGGGTKLEIKRTVAAPSVFIFPPSDEQLKSGTASVVCLLNNFYPREAKVQWKVDNALQSGNSQESVTEQDSKDSTYSLSSTLTLSKADYEKHKVYACEVTHQGLSSPVTKSFNRGEC |  |  |  | no binding (tested: starting at 1 µM) | no binding (tested: starting at 1 µM) | no binding (tested: starting at 1 µM) | 119 |
